The target in test [1] is murine TIGIT (mTIGIT) on B3Z T-cell hybridoma cells (mouse) (UniProt P86176). The test is described as follows: cell-based or functional assay.
For test [2], the target named is murine TIGIT (mTIGIT) tagged with FLAG and GFP, on cells (mouse) (UniProt P86176). Description: cell-based or functional assay.
A further test deals with T1, human TIGIT (human, UniProt Q495A1 22-141, limits assumed).
T1 construct: also called hTIGIT
T1 sequence: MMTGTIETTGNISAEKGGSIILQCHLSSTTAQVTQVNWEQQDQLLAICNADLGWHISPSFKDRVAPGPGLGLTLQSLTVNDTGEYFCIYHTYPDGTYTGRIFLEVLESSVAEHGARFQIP
Description: Biacore, preliminary; format not stated. For orientation: SPR reads the build-up and loss of mass on a sensor chip optically.

Test [3] has as its target T2, mouse TIGIT ECD-CD4TM-GFP on HEK-293T cells (mouse, UniProt P86176 29-148).
T2 construct: The legend names the construct as mouse TIGIT ECD; also called mouse TIGIT-CD4TM-GFP; mTIGIT-CD4TM-GFP; not shown: transmembrane domain of CD4 (CD4TM); GFP (green fluorescent protein)
T2 sequence: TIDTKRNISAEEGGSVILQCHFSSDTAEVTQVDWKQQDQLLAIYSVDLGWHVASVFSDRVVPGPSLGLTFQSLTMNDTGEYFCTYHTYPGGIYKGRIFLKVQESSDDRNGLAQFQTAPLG
The test is described as follows: flow cytometry of rabbit antibody supernatant on HEK-293T cells transiently transfected with mouse TIGIT ECD-CD4TM-GFP; antibody signal against GFP. In general terms: In flow cytometry, cells or beads pass a laser one at a time.

Test [4] addresses T2, mouse TIGIT ECD-CD4TM-GFP on HEK-293T …. The test is described as follows: flow cytometry, 1 µg/ml antibody on transiently transfected HEK-293T cells, PE-conjugated anti-Fc secondary, signal against TIGIT-GFP. How it is done: The TIGIT variants were evaluated by FACS with anti-hTIGIT antibodies. […] After 16 hours, transfected cells were suspended in ice cold HBSS containing 2% FBS and incubated on ice with 1 μg/ml anti-hTIGIT antibodies 313R12, 313M32, or 313M34 for 30 minutes. 313M34 is an anti-hTIGIT antibody that was generated based upon the amino acid sequences of the 10A7 antibody described in U.S. Publication 2009/0258013. The 10A7 antibody is an anti-mouse TIGIT antibody that binds both mouse TIGIT and human TIGIT. A second incubation with 50 μl PE-conjugated anti-Fc secondary antibody was performed to detect cells bound by the antibodies. The cells were analyzed on a FACSCanto instrument (BD Biosciences) and the data was processed using FlowJo software.

The next test addresses T3, hPVR-rbFc fusion protein (human, UniProt P15151 21-343).
T3 construct: extracellular domain; Expressed in CHO cells, purified on protein A; also called human PVR-rabbit Fc fusion protein; not shown: rabbit Fc region
T3 sequence (looked up): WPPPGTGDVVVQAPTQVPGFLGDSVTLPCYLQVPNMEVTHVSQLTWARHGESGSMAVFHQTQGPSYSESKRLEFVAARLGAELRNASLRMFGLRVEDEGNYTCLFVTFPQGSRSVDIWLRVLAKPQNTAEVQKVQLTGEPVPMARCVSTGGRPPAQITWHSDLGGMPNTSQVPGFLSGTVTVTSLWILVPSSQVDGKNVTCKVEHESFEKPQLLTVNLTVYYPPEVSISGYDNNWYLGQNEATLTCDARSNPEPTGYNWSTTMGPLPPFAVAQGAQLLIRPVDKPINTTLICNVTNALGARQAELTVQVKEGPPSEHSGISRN
Description: flow cytometry of hPVR-rbFc on HEK-293T cells with hTIGIT-CD4TM-GFP, detected with anti-rabbit Fc-PE, no antibody added. How it is done: FIGS. 19A and 19B. FACS analysis of anti-TIGIT antibody blocking binding of human TIGIT to PVR. […] Transfected cells were incubated with soluble human PVR-Fc fusion protein in the presence of antibodies generated to TIGIT (313R19, 313M26, or 313M32) at concentrations of 10, 2, or 0.4 μg/ml or no antibody and analyzed by flow cytometry. Specific binding is indicated by the presence of a diagonal signal within a FACS plot. […] Specific binding is indicated by the presence of a diagonal signal within a FACS plot.
After 16 hours, transfected cells were suspended in ice cold HBSS containing 2% FBS and heparin and incubated on ice with 0.5 μg/ml hPVR-rbFc fusion protein in the presence of anti-TIGIT antibodies 313R19, 313M26, or 313M32 for 60 minutes. Antibody 313R19 is a humanized version of a rabbit anti-TIGIT antibody. 313R19 binds mouse and human TIGIT. The antibodies were tested at concentrations of 10, 2, and 0.4 ug/ml. Cells were incubated without antibody or without hPVR-rbFc as controls. A second incubation with 100 μl PE-conjugated anti-rabbit Fc secondary antibody was performed to detect cells bound by the hPVR-rbFc fusion protein. The cells were analyzed on a FACSCanto instrument (BD Biosciences) and the data was processed using FlowJo software.

Some results are limits rather than exact numbers.

For the molecule murine PVR (mPVR) on cells (ligand), the ratio of IL-2 secretion in response to mPVR-expressing tumor cells to that in response to mPVR-negative tumor cells (ELISA) in test [1] was under 1. The ratio of NK-92 cytotoxicity against 721.221-mPVR cells to that against parental 721.221 cells (calcein release) in test [2] is under 1.

B1: anti-TIGIT antibody 313R19 (antibody, human IgG1, kappa, V domains shown)
VH: QVQLQESGPGLVKPSETLSLTCTVSGFSLSSSYMSWIRQPPGKGLEWIGIIGSNGNTYYANWAKGRVTISKSSNQVSLKLSSVTAADTAVYYCARGGYRTSGMDPWGQGTLVTVSS
VL: DIQMTQSPSSLSASVGDRVTITCQASQNIYSDLAWYQQKPGKAPKLLIYRASTLASGVPSRFSGSGSGTDFTLTISSLQPEDFATYYCQQEHLVAWIYNVFGQGTKVEIKR
notes: Humanized rabbit antibody, human IgG1
B1: in the test with human TIGIT, the Kd – broadly, the free concentration of one partner at which half of the binding sites on the other are occupied at equilibrium, for simple one-to-one binding – was found to be 2 nM.

B2: anti-TIGIT antibody 313Rb1 (antibody, V domains shown)
VH: QVQLESEGGLFKPTDTLTLTCTVSGSSLSSSYMSWVRQAPGKGLEWIGIIGSNGNTYYANWAKGRFTISKTSTTVELKITSPTTEDTATYFCARGGYRTSGMDPWGPGTLVTVSS
VL: DIVMTQTPASVEVAVGGTVTIKCQASQSISSYLNWYQQKPGQPPKLLIYDALKLASGVPSRFSGSGSGTEYTLTISGVESADAATYYCQQEHSVGNVDNVFGGGTEVVVKR
notes: Rabbit antibody raised against the extracellular domain of mouse TIGIT
B2: the binding result in test [3] is listed as “binds”.

B3: anti-TIGIT antibody 313R12 (antibody, mouse IgG2a, kappa, V domains shown)
VH: B2 VH
VL: B2 VL
notes: Chimeric antibody: variable regions of 313Rb1 in a mouse IgG2a format
With B3, in test [4], the binding result was “binds”.

B4: hTIGIT-CD4TM-GFP on HEK-293T cells (receptor)
chain: T1 sequence
notes: Cell surface fusion protein, transiently expressed; also called human TIGIT ECD-CD4TM-GFP; FLAG-hTIGIT-CD4TM-GFP; not shown: transmembrane domain of CD4 (CD4TM); C-terminal GFP protein tag
As for B4, in the test with hPVR-rbFc fusion protein, the binding result was “binds”.

The values are drawn from US20190077864A1 (ONCOMED PHARMACEUTICALS, published 2019).
